Assay results published in paper PMC4575180 (2015).

Target: T1, syntaxin3 (Rattus norvegicus (Rat), UniProt Q08849)
T1 chain: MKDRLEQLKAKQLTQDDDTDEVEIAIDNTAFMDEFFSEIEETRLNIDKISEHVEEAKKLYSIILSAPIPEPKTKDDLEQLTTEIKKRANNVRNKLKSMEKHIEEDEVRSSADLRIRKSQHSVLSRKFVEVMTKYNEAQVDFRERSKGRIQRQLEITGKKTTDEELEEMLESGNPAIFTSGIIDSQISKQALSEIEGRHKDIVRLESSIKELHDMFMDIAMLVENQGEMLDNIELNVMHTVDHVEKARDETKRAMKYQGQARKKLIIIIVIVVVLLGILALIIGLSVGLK
Assay: pull-down

binding result: no binding
B1: Munc18c (protein)
chain: MAPPVSERGLKSVVWRKIKTAVFDDCRKEGEWKIMLLDEFTTKLLSSCCKMTDLLEEGITVIENIYKNREPVRQMKALYFISPTPKSVDCFLRDFGSKSEKKYKAAYIYFTDFCPDSLFNKIKASCSKSIRRCKEINISFIPQESQVYTLDVPDAFYYCYSPDPSNASRKEVVMEAMAEQIVTVCATLDENPGVRYKSKPLDNASKLAQLVEKKLEDYYKIDEKGLIKGKTQSQLLIIDRGFDPVSTVLHELTFQAMAYDLLPIENDTYKYKTDGKEKEAVLEEDDDLWVRVRHRHIAVVLEEIPKLMKEISSTKKATEGKTSLSALTQLMKKMPHFRKQISKQVVHLNLAEDCMNKFKLNIEKLCKTEQDLALGTDAEGQRVKDSMLVLLPVLLNKNHDNCDKIRAVLLYIFGINGTTEENLDRLIHNVKIEDDSDMIRNWSHLGVPIVPPSQQAKPLRKDRSAEETFQLSRWTPFIKDIMEDAIDNRLDSKEWPYCSRCPAVWNGSGAVSARQKPRTNYLELDRKNGSRLIIFVIGGITYSEMRCAYEVSQAHKSCEVIIGSTHILTPRKLLDDIKMLNKSKDKVSFKDE
